± gives the standard deviation of the averaged measurements.
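Also: PSI is a weighted mean of sequencing reads over stability bins, variants kept only with over 10 reads, mCherry proximal and sfGFP distal, peptide attached via GGGS linker.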

The test system of this data set is Saccharomyces cerevisiae. Description: protein stability index of tFT-peptide fusion (C-terminal peptide) (PSI (0-1 scale)); higher = more stable (slower turnover). The note with it: genetic background: wild type; temperature: 30 C.
Turning to RNKRKKNKDKIK, the protein stability index came out at 0.677 ± 0.051.
Next, RNKTNYIQKLTK: 0.665 ± 0.027; RNNIKIKNTQQN: 0.759 ± 0.045; RNRRKEMKKGRE: 0.631 ± 0.034.
Next, RNSPLFLESPGS: 0.723 ± 0.034.
Consider RNTIKTKKSNYV, for which the protein stability index is 0.654 ± 0.015.
For the sequence RPAPSRTYLNLI, the protein stability index came to 0.674 ± 0.026.
Next, RPASSYPPHSPT: 0.767 ± 0.037; RPFGRPTSMRHA: 0.616 ± 0.059; RPFLPPPPHCPP: 0.75 ± 0.036.
As for RPFVRDFGCAVW, the protein stability index came out at 0.711 ± 0.023.
As for RPGNIRNNKKKK, the figure is 0.688 ± 0.021; as for RPIQPATLAYSP, 0.682 ± 0.037.
As for RPLLPPTFATSF, the figure is 0.751 ± 0.038; as for RPLPPLIPSSFS, 0.698 ± 0.038; as for RPLSDDTDCPCI, 0.748 ± 0.13.
In the case of RPLSSSFRTVPS, the protein stability index is 0.721 ± 0.037.
In turn, RPNTKKHKIGER yielded a protein stability index of 0.719 ± 0.03.
Next, RPPDPPLHHNLP: 0.687 ± 0.014; RPPFPPPPLPPP: 0.656 ± 0.031.
The sequence RPPFRVYDYPLL returned a protein stability index of 0.671 ± 0.039.
The sequence RPPPPHPSPLPL yielded a protein stability index of 0.713 ± 0.052.
RPPPPTAPPPSR had a protein stability index of 0.719 ± 0.043.
Next, RPPRPGFCLFLP: 0.652 ± 0.0067; RPPSNRPPPPSS: 0.698 ± 0.0032.
Next, RPRGRGRSRGDT: 0.633 ± 0.037.
As for RPRIPLNSSSLS, the figure is 0.74 ± 0.037; as for RPRLSGGLGGVG, 0.644 ± 0.051; as for RPRTSLFPCSLP, 0.711 ± 0.081.
Consider RPTPHVVLPPLP, for which the protein stability index stood at 0.524 ± 0.067.
Next, RPTPSAPHRTRI: 0.735 ± 0.041; RQCSGMIMKDVG: 0.73 ± 0.036.
Next, RQDLLILIKQKG: 0.573 ± 0.0072.
As for RQDRTFEIQGWE, the protein stability index was found to be 0.697 ± 0.084.
The sequence RQKIRRKSSTKN yielded a protein stability index of 0.704 ± 0.0074.
Next, RQRGNMEIRIRR: 0.709 ± 0.027; RRAPLRNTSRHR: 0.663 ± 0.021.
Turning to RRCTLVERAWRW, the protein stability index turned out to be 0.628 ± 0.039.
As for RREGGRQRGGSG, the figure is 0.67 ± 0.063; as for RREGWYTNRERG, 0.668 ± 0.013; as for RRFAKVALLSLR, 0.644 ± 0.12.
Next, RRGAVVLVSPAL: 0.677 ± 0.021; RRGPLDSVLVAI: 0.713 ± 0.05; RRGRGGSGGSAP: 0.734 ± 0.053.
Next, RRGWGDRLGRDA: 0.711 ± 0.1; RRHKNNRLTVCR: 0.625 ± 0.098; RRINRRGPRMME: 0.62 ± 0.015.
In turn, RRKEQGNHSTMR returned a protein stability index of 0.663 ± 0.013.
Next, RRKHKSEEKHKR: 0.649 ± 0.038; RRKNIQEKKIKK: 0.725 ± 0.016; RRKVGVFTRRWV: 0.691 ± 0.04.
As for RRKYIFRMIYPR, the figure is 0.658 ± 0.026; as for RRLRGGTQAEGE, 0.682 ± 0.068.
In turn, RRLRRALPPQLA came in with a protein stability index of 0.577 ± 0.037.
Next, RRPPPPSPPPPP: 0.7095 ± 0.0062.
Next, RRPSSCSPLPLY: 0.695 ± 0.03; RRRAEGRRGVRA: 0.6223 ± 0.0014; RRRAGSKEKQRK: 0.703 ± 0.019.
As for RRRGQDEGKQKR, the figure is 0.7511 ± 0.0059.
Consider RRRGQLNTAEWK, for which the protein stability index was found to be 0.717 ± 0.065.
The sequence RRRGREVCRCTE displayed a protein stability index of 0.716 ± 0.046.
As for RRRPPPLPPPHL, the protein stability index came out at 0.63 ± 0.015.
Next, RRSGILGSSFVF: 0.75 ± 0.047.
Next, RRSRTEVVAVGG: 0.676 ± 0.017; RRSVMLISNETR: 0.698 ± 0.038; RRTDHQRAVREI: 0.731 ± 0.042.
As for RRVFSAGTRCGI, the figure is 0.761 ± 0.11; as for RSAVPSARASAD, 0.6431 ± 0.0026; as for RSCPGSWFRLSV, 0.699 ± 0.12.
Consider RSFPSPPASLLL, for which the protein stability index was determined as 0.66 ± 0.062.
As to RSGPLFPLSCPP, the protein stability index came to 0.767 ± 0.026.
As for RSGPRMNVNRTL, the figure is 0.646 ± 0.11; as for RSGQEKEKWEER, 0.701 ± 0.022.
RSHSTSSETNFV displayed a protein stability index of 0.6885 ± 0.0024.
Next, RSKHNEDRVVYI: 0.709 ± 0.093; RSLPLAPPLAPL: 0.742 ± 0.029.
As for RSPPAPPHSCPP, the figure is 0.69 ± 0.14.
As for RSRGARMPTTPT, the figure is 0.684 ± 0.034.
For the sequence RSRGSRNGKWVW, the protein stability index worked out at 0.703 ± 0.02.
As for RSRRDTDFGLLI, the figure is 0.717 ± 0.11; as for RSSDFASDRGWT, 0.67 ± 0.028.
Next, RSSLYLDVVLSF: 0.709 ± 0.097; RSSRRLAGPVSS: 0.639 ± 0.06.
As for RSSSLRRGIGQR, the figure is 0.688 ± 0.071.
In turn, RSTDKLLGLKKM displayed a protein stability index of 0.652 ± 0.073.
As for RSTVFCSTFVHD, the figure is 0.672 ± 0.014; as for RSVGPPTLPTHP, 0.666 ± 0.023.
Next, RSWCAGMAGRRR: 0.6626 ± 0.0043; RSWGRVCFGGVV: 0.657 ± 0.054; RTGTGTRTRPSR: 0.701 ± 0.066.
As for RTKENYKRRKEK, the figure is 0.702 ± 0.12; as for RTLEIYRGLTNE, 0.648 ± 0.094; as for RTPQLSVFDLGI, 0.7957 ± 0.0039.
As for RTRRGRIGEIGP, the protein stability index worked out at 0.703 ± 0.037.
Next, RTRTGRPKSPLH: 0.6354 ± 0.0052; RTSLGFSPLIHQ: 0.6818 ± 0.0057.
As for RTVTKGTTFKVR, the figure is 0.671 ± 0.057; as for RTWGGKKHKKRK, 0.716 ± 0.014; as for RVAWFSSNCFAV, 0.571 ± 0.061.
RVDFRLPVYLGI: the protein stability index turned out to be 0.61 ± 0.015.
Next, RVEGGWGEAWRE: 0.803 ± 0.075.
In turn, RVEGKNNKEVCI yielded a protein stability index of 0.742 ± 0.079.
As for RVESRFSGTDSF, the figure is 0.708 ± 0.041.
In turn, RVGPLLLTAGPR had a protein stability index of 0.644 ± 0.029.
Next, RVGQINKFLPLE: 0.682 ± 0.071; RVGSGCFVGIFC: 0.577 ± 0.024; RVKGCYGPGSGI: 0.685 ± 0.066.
Consider RVLGEGKCCIRV, for which the protein stability index was found to be 0.6063 ± 0.0056.
As for RVLRAELCLHEI, the figure is 0.687 ± 0.065; as for RVLSAASATRMT, 0.619 ± 0.013; as for RVLSQAGSYSLC, 0.587 ± 0.019.
As for RVLSWSGRQSWC, the figure is 0.668 ± 0.045; as for RVNERNAEAGGD, 0.641 ± 0.043.
As for RVPLFPIKMGLG, the figure is 0.591 ± 0.035.
RVPPSRLSLPLS displayed a protein stability index of 0.6951 ± 0.0043.
As for RVRAITRKCGQY, the figure is 0.656 ± 0.051.

The values are drawn from the supplement of paper PMC10724198.
